Data taken from the DeepSol protein solubility set.

Assay: soluble on expression in E. coli; label from the status in PepcDB or PDB records

## MSQQIQMKSVIDVKFPTHLFSPLATSSPKLTRMRAPIRDQSWSSCSDDSSGNLTSQAITGVDDSHIEATKLENESSTSSCSMHTALEFVNSSIFERVRSYSEVITREELQSAIFERKLTETDCSKEEAEMYSIIVTERILWTAGRTWTGTIQVKTKDLLNDYVRYACEDWYMKHTGQLCAVELNHIGKWDEIFDSNAIAIYCYETGIPTIIVDRIFSSNLVRRSTGNYLDTKEVTWLIFAMIGTDENQSIEYWFRVLDVQSTGILQLDDLRMFYDAITKFLVNNNVQSLPFENAIAQFRDILGTDKWNLQSFKKNSQLAFRVINGFVCALRFLEQEICEKTNTERQDDEEFGMVRTRWQRLIDHKFDDYYAQSSTSSSGSFNINNEPINPV
  soluble on expression in E. coli: not soluble

## MGSDKIHHHHHHMRRSKLTPTTPPMFKNLSVYRIQGDWHPAIAEAEASLQKFRFAECGATQAISAGWVEPRGEKHGPLVEAVGDQWMLTLCIQTKLLPAGVIKQHVDARIEQIKQREARRPGKKEVREIKEAVILELLPKAFSKKEHISVWIDRKNKLVAIDTASQSKCDTATSALVKTLDGLAIGLIQTQMSPGTCMSQWLMDGEAPDGFGVERECELKSSDESRSAVKYSRHVLDIDEVKQHLTHGKTPTQLAMTWTDRVSFTLTDAMALKKVTFLETPLMKKKAGGDDPFDANAAIVTGELSQLIPQLIEALGGELEFTGESGEGAREAKSEEREQETAEA
  soluble on expression in E. coli: not soluble

## MKWPWWPVCVPLSKRLTLPLPSTANPVVQPSRLALACANRLFEAADNRERFLQALMTPPAYPATVLWCGEPAAALPFAALPPLPWQPPWVSRFVAGSPTGQHPLHAAGAYYCLDSSSVFAAVPLLTLPQEPSLVIDVCAAPGGKSLFAWRSLHPRYLICNETIGKRVGKLIGNLKRCRVHPVGVTSWDSEVLAAEFQGTADVVIVDAPCSGQSLLAKGQKAEGCFHPLTIRHNQRRQKRILAAATTLVRPGGWLLYSTCTFSQDENEDVAAWLMAKFPHLLPQPVPALAAYQSHLAAFPCYRLWPHQGEGAGAFTILWQHQGLEHHHHHH
  soluble on expression in E. coli: soluble

## MGSDKIHHHHHHMAFKQRREYLFLYTVKDANPNGDPLNENHPRYDGDTAQAMASDVRVKRTTRDEWVRSGEIVFVDGEPKSLKTRFEELKKITGKSDAREIMKQCLDVRLFGVTFALGKEAFAWTGPVQFKWGRSLHSASFEFVQGTAAFATERGGADNRQRSFRNEYLVPFALMGVYAIANQYASQYTDAADEDLQRMLDGLWQGTDNLITRSKNEHKSRLLIEITYKEDFNGKIGALDDKVTLLDREGKVMDREKQKALRSLQEVSLDIGALLKSMELKQEQIAGIRVITDGEINIIQEEQLKGISSIEVR
  soluble on expression in E. coli: not soluble

## GSKAPPTFKVSLMDQSVREGQDVIMSIRVQGEPKPVVSWLRNRQPVRPDQRRFAEEAEGGLCRLRILAAERGDAGFYTCKAVNEYGARQCEARLEVRGE
  soluble on expression in E. coli: soluble

## GSHMRKTLVLLGAHGVGRRHIKNTLITKHPDRFAYPIPHTTRPPKKDEENGKNYYFVSHDQMMQDISNNEYLEYGSHEDAMYGTKLETIRKIHEQGLIAILDVEPQALKVLRTAEFAPFVVFIAAPTITPGLNEDESLQRLQKESDILQRTYAHYFDLTIINNEIDETIRHLEEAVELVC
  soluble on expression in E. coli: soluble

## MVKGVETKTIVGLEVGTSKVVVVVGEVFPDGVVNVLGVGSCPSKGIDRGSITDLDAVVGSIQRAIEAAESMADCQIMSVTLAITGEHIQSLNESGFVPIAESEVTQEEIDSALHTASSIKLPEGL
  soluble on expression in E. coli: not soluble

## MSLGIENDRKLVVNCLPLTEAERAQFTRAAKGMPQEFVGDPAQRGSMNWTAEIPDELKAYATAVIGNITPETCAQCPRLEWLQTWSAGVDKYQHPGILQPGSMLTNATGAYGQSVSEHMFAMMWAIMKNLHIYAVGNPNAAWQDAGRVISPDGKTALIIGTGDIGSHFARLCKSVGMSTIGIRRNPTVEAPGIDHMVGFESLDDVLQYADVIAMCVPSTPSTHHLLNAERIAKLKTDATVINAGRGDAIDTQALADALANGMIRGAGLDVTEPEPLPAASPLWSEPKCLITPHVAGGNHLESTERRIIAIALGNVRCYANGQSLDNRMPLKGEGHHHHHH
  soluble on expression in E. coli: soluble
